Consider 4 molecules from article PMC10960945, “A nanobody inhibitor of Fascin-1 actin-bundling activity and filopodia formation” (Open Biology, 2024).

The target in the assay is Fascin-1 1-493 (full-length human Fascin-1 WT, untagged) (human, UniProt Q16658). Briefly: pull-down; in vitro co-precipitation of recombinant proteins: His-tagged Nbs immobilised on Nickel Sepharose as bait for untagged Fascin-1; SDS-PAGE. Particulars: both partners purified.

Residue numbers refer to the chain shown, from its start.

B1: Nb 3B9 (VHH)
VHH: QVQLQESGGGLVQAGGSLRLSCAASGRTFSSYAMGWFRQAPGMEREFVAAIPWIGGNTYYADSVKGRFTISRDNAKTLYLLMNSLKPEDTALYYCAARAHSYVLSTSPSHYDYWGQGTQVTVSS
notes: Eluted in SEC as a dimer and a monomer population; the two were kept separate in the later assays and counted as two of the 14 Nbs; not shown: His-tag, C-terminal, kept
As for B1, the binding result was “binds”.

B2: Nb 3G9 (VHH)
VHH: B1 VHH with G16D, G26R, F29S, S30N, S31T, M43K
notes: as for B1
Turning to B2, the binding result was “binds”.

B3: Nb 3G11 (VHH)
VHH: QVQLQESGGGLVQAGGSLRLSCAVSGRLNSRYSMGWFRQAPGKEREFVAVVKWTTGGTMYADSVKGRFTISRDNRKNTVYLQMNTLKPEDTALYYCASRPDYSNSYYYTTVSDYSDWGQGTQVTVSS
notes: also called nanobody 3G11; not shown: His-tag, C-terminal, kept
Take B3: the binding result is listed as “binds”.

B4: Nb 3H7 (VHH)
VHH: QVQLQESGGGLVQAGGSLRLSCAGPVRAFNTYAMGWFRQAPGKEREFVAAITRSGDVTYYSNSVKGRFTISRENAKNTVYLHMNSLKPEDTAVYSCAADAQLTPLNPRAQEYAYWGQGTQVTVSS
notes: also called nanobody 3H7; not shown: His-tag, C-terminal, kept
For the molecule B4, the binding result was “binds”.
